Patent publication US20230250157A1 (CALIFORNIA INSTITUTE OF TECHNOLOGY, published 2023)

Target: SARS-CoV-2 WA1 D614G spike on pseudovirus (SARS-CoV-2 WA1, UniProt P0DTC2 14-1252)
Experiment: cell-based or functional assay

B1: M8a-3 (antibody, V domains shown)
VH: QVQLQQPGAELVLPGASVKLSCKASGYTFTNYWMHWVKQRPGHGLEWIGEIDPFDTYIKINQKFKGKSTLTVDTSSSTAYMQLSSLTSEDSAVYYCARPDSSGYPVYFDYWGQGTTLTVSS
VL: DIVMTQSHKFMSTSVGDRVSITCKASQDVGTYIAWYQQKPGQSPKLLIYWASTRHTGVPDRFTGSGSGTNYTLTISSVQAEDLALYHCQQHYSTPYTFGGGTKLEIK
pseudovirus neutralization IC50: 0.18 µg/mL
